The target in this assay is T1, SARS-CoV-2 RBD (Wuhan), hexahistidine-tagged (SARS-CoV-2, UniProt P0DTC2).
T1 construct: also called recombinant RBD protein
Nature of the assay: BLI. Conditions: both partners purified.

B1: M15 (plant-produced COVA2-15, conventional IgG1) (antibody, V domains shown)
VH: QVQLLESGGGLVQPGGSLRLSCAASGFTFSSYAMSWVRQAPGKGLEWASAISGSGGSTYYADSVEGRFTISRDNSKNTLYLQMNSLRAEDTAVYYCAKDTGYCGDDCYIKLIRGGPDYWGQGTLVTVSS
VL: DIVMTQSPLSLPVTLGQPASISCRSSQSLVYSDGNTFLNWFQQRPGQSPRRLIYQVSNRDSGVPDRFSGSGSGTDFTLKISRVEAEDVGVYYCMQGTHWPRTFGQGTKLEIK
As for B1, the binding result is reported as “binds”.

B2: S15 (plant-produced COVA2-15, single-chain (sc)Fv-Fc format) (Fc fusion, human)
VH: B1 VH
VL: B1 VL
For the molecule B2, the binding result is “binds”.

Source of the values: publication PMC11672753 (Plant Biotechnology Journal, 2024).
